Residue numbers refer to the chain shown, from its start. Names may count otherwise. Blank lines part the entries; values can stand above or below the binder they belong to.
Columns and labels:
human PD-L1 [1] = target: T1, human PD-L1 (human, UniProt Q9NZQ7 19-290); assay: flow cytometry, CHO cells expressing huPD-L1
T1 construct: also called huPD-L1; CD274
T1 sequence (Q9NZQ7 19-290): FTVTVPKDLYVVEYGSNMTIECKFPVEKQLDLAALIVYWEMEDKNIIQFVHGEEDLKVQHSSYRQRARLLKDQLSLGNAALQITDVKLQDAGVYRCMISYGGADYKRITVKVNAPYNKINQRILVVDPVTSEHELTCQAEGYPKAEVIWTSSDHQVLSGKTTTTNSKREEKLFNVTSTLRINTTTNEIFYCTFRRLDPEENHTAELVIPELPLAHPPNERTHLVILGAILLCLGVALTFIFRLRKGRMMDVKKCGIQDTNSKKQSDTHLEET

CD226 [2] = target: T2, CD226 (Homo sapiens (Human), UniProt Q15762 19-336); assay: flow cytometry on CD226-transfected Expi293 cells
T2 construct: also called CD226 tfxn
T2 sequence: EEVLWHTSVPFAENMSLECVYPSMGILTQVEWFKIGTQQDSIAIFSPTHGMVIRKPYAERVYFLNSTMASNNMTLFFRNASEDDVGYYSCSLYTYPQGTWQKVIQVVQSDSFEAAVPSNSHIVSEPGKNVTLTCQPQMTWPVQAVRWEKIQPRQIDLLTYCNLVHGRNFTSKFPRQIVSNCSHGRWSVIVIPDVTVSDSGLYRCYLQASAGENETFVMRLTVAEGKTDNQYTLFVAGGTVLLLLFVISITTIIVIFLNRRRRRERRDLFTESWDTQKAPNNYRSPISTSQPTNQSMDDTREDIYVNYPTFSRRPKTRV

TIGIT [3] = target: T3, TIGIT (Homo sapiens (Human), UniProt Q495A1 23-244); assay: flow cytometry on TIGIT-transfected Expi293 cells
T3 construct: also called TIGIT tfxn
T3 sequence: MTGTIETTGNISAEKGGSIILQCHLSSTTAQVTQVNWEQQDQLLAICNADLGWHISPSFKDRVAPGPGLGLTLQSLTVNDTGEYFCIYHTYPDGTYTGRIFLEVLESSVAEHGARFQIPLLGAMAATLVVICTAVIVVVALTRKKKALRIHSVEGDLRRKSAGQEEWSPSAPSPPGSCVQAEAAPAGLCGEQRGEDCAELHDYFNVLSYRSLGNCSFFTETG

CD96 [4] = target: T4, CD96 (UniProt P40200 22-585, limits assumed); assay: flow cytometry on CD96-expressing cells; ratio to unmodified CD155 Fc fusion
T4 construct: whole, on cells
T4 sequence (looked up): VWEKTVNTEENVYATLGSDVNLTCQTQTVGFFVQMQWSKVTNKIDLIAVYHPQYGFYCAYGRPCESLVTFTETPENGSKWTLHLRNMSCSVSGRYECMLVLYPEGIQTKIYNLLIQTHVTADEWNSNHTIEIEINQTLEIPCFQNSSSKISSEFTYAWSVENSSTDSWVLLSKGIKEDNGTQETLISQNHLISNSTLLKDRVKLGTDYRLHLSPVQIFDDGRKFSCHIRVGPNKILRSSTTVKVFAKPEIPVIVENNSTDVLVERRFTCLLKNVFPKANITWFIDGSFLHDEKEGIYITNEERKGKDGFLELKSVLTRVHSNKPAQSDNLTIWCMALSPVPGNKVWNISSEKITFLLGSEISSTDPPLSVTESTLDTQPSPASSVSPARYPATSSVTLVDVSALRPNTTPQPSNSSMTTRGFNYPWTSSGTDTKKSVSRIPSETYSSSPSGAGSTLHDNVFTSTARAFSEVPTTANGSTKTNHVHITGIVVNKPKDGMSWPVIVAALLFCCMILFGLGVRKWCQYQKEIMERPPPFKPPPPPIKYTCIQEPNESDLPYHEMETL

TIGIT [5] = target: T3, TIGIT; assay: flow cytometry on TIGIT-transfected Expi293 cells; ratio to unmodified CD155 Fc fusion
CD96 [6] = target: T4, CD96; assay: flow cytometry on CD96-expressing cells
CD226 [7] = target: T2, CD226; assay: flow cytometry on CD226-transfected Expi293 cells; ratio to unmodified CD155 Fc fusion
human CD28 [8] = target: T5, human CD28 (human, UniProt P10747 19-220); assay: flow cytometry on Jurkat cells (CD28); vs CD80 WT IgV-Fc
T5 construct: Endogenous CD28 on Jurkat/IL2 reporter cells

human CTLA-4 [9] = target: T6, human CTLA-4 (human, UniProt P16410 36-223); assay: flow cytometry on CHO cells stably expressing CTLA4
T6 construct: also called huCTLA4
T6 sequence (P16410 36-223): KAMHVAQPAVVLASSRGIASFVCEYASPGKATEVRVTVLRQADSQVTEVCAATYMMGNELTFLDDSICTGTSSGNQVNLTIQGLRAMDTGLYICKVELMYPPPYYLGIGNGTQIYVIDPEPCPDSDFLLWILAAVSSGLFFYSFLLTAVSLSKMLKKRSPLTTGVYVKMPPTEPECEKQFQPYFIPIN

human PD-L1 [10] = target: T7, human PD-L1 (human, UniProt Q9NZQ7 19-290); assay: flow cytometry on CHO cells stably expressing PD-L1; vs CD80 WT IgV-Fc
T7 construct: also called huPD-L1; CD274
T7 sequence (Q9NZQ7 19-290): as the sequence (Q9NZQ7 19-290) above

human PD-L1 [11] = target: T7, human PD-L1; assay: flow cytometry; PD-L1 MFI over CD28 MFI
human CTLA-4 [12] = target: T6, human CTLA-4; assay: flow cytometry on CHO cells stably expressing CTLA4; vs CD80 WT IgV-Fc
human PD-L1 [13] = target: T7, human PD-L1; assay: cell-based or functional assay
human CD28 [14] = target: T5, human CD28; assay: flow cytometry on Jurkat cells (CD28)
human PD-L1 [15] = target: T7, human PD-L1; assay: flow cytometry on CHO cells stably expressing PD-L1
[16] = target: T8, CD28, endogenously expressed on Jurkat/IL2 reporter cells (human, UniProt P10747 19-220); assay: flow cytometry on Jurkat/IL2 reporter cells (endogenous CD28); PE anti-human Fc
T8 construct: Endogenous CD28 of Jurkat/IL2 reporter cells

MFI (CD226 [2]): 5140 MFI
MFI (TIGIT [3]): 4070 MFI
MFI parental ratio (CD96 [4]): 1.1 fold
MFI parental ratio (TIGIT [5]): 1.5 fold
MFI (CD96 [6]): 3280 MFI
MFI parental ratio (CD226 [7]): 1.4 fold
B3: variant CD155 IgV-Fc P18L/L79V/F91S (Fc fusion, not shown: a dimerising Fc or GST)
chain: WPPPGTGDVVVQAPTQVLGFLGDSVTLPCYLQVPNMEVTHVSQLTWARHGESGSMAVFHQTQGPSYSESKRLEFVAARVGAELRNASLRMSGLRVEDEGNYTCLFVTFPQGSRSVDIWLRVL

Fold change to WT CD80 (human CD28 [8]): 3.5 fold
MFI at 33.3 nM (human CTLA-4 [9]): 32000 MFI
Fold change to WT CD80 (human PD-L1 [10]): 546 fold
Ratio of PDL1:CD28 (human PD-L1 [11]): 129 ratio
Fold change to WT CD80 (human CTLA-4 [12]): 26.8 fold
Fold Increase over WT CD80-IgV-Fc, Jurkat/IL2 + CHO/OKT3/PD-L1 Reporter Assay (human PD-L1 [13]): 5.25 fold
RLU, Jurkat/IL2 + CHO/OKT3/PD-L1 Reporter Assay, CD80 Conc 5.0 nM (human PD-L1 [13]): 2050 RLU
MFI at 33.3 nM (human CD28 [14]): 197 MFI
MFI at 33.3 nM (human PD-L1 [15]): 25500 MFI
B5: CD80 E35D/D46V/M47L/V68M/L85Q/E88D IgV-Fc, (EAAAK)3 linker (Fc fusion, not shown: a dimerising Fc or GST)
chain: VIHVTKEVKEVATLSCGHNVSVEELAQTRIYWQKDKKMVLTMMSGVLNIWPEYKNRTIFDITNNLSIMILALRPSDEGTYECVVQKYDKDAFKREHLAEVTLSVKADEAAAKEAAAKEAAAK

MFI at 33.3 nM [16]: 18000 MFI
B6: WT CD80 ECD-Fc (R&D) (Fc fusion)
chain: VIHVTKEVKEVATLSCGHNVSVEELAQTRIYWQKEKKMVLTMMSGDMNIWPEYKNRTIFDITNNLSIVILALRPSDEGTYECVVLKYEKDAFKREHLAEVTLSVKADFPTPSISDFEIPTSNIRRIICSTSGGFPEPHLSWLENGEELNAINTTVSQDPETELYAVSSKLDFNMTTNHSFMCLIKYGHLRVNQTFNWNTTKQEHFPDN
notes: Bought from R&D Systems; also called unmodified CD80-ECD-Fc fusion molecule (R&D Systems, USA); wild-type CD80-ECD-Fc; not shown: Fc and any linker of the bought R&D Systems protein are not described

More lines, now with the values behind:

B1: variant CD80 IgV-Fc H18Y/A26E/E35D/D90G (Fc fusion, not shown: small tags and cut ends; a dimerising Fc or GST)
chain: VIHVTKEVKEVATLSCGYNVSVEELEQTRIYWQKDKKMVLTMMSGDMNIWPEYKNRTIFDITNNLSIVILALRPSDEGTYECVVLKYEKGAFKREHLAEVTLSVKAD
MFI at 33.3 nM (human PD-L1 [1]): 10000 MFI

B2: variant CD155 IgV-Fc A81V/L83P (Fc fusion, not shown: a dimerising Fc or GST)
chain: B3 chain with L18P, V79L, A81V, L83P, S91F
MFI (CD226 [2]): 4170 MFI
MFI (TIGIT [3]): 2910 MFI
MFI parental ratio (CD96 [4]): 0.8 fold
MFI parental ratio (TIGIT [5]): 1.1 fold
MFI (CD96 [6]): 2620 MFI
MFI parental ratio (CD226 [7]): 1.1 fold

B4: variant CD155 IgV-Fc P18T/F91S/R94H (Fc fusion, not shown: a dimerising Fc or GST)
chain: B3 chain with L18T, V79L, R94H
MFI (CD226 [2]): 3590 MFI
MFI (TIGIT [3]): 2940 MFI
MFI parental ratio (CD96 [4]): 0.8 fold
MFI parental ratio (TIGIT [5]): 1.1 fold
MFI (CD96 [6]): 2510 MFI
MFI parental ratio (CD226 [7]): 1 fold

Source: patent US20210130436A1 (published 2021)
